The target in test [1] is MDA-modified bovine serum albumin (bovine) (UniProt P02769). Briefly: ELISA; plasma added to coated MDA-BSA; bound CFH/FHL-1 detected with a monoclonal antibody that recognizes SCR5; read-out RLU/100 ms. A general note: An ELISA detects its analyte on a solid surface through an enzyme-linked reagent.
For test [2] the target is unchanged. Briefly: MST; microscale thermophoresis with both binding partners in fluid phase.

Sequence of complement factor H and its splice variant factor H-like protein 1 in plasma (study cohorts, all rs1061170 genotypes) (P08603 19-1231, change not shown): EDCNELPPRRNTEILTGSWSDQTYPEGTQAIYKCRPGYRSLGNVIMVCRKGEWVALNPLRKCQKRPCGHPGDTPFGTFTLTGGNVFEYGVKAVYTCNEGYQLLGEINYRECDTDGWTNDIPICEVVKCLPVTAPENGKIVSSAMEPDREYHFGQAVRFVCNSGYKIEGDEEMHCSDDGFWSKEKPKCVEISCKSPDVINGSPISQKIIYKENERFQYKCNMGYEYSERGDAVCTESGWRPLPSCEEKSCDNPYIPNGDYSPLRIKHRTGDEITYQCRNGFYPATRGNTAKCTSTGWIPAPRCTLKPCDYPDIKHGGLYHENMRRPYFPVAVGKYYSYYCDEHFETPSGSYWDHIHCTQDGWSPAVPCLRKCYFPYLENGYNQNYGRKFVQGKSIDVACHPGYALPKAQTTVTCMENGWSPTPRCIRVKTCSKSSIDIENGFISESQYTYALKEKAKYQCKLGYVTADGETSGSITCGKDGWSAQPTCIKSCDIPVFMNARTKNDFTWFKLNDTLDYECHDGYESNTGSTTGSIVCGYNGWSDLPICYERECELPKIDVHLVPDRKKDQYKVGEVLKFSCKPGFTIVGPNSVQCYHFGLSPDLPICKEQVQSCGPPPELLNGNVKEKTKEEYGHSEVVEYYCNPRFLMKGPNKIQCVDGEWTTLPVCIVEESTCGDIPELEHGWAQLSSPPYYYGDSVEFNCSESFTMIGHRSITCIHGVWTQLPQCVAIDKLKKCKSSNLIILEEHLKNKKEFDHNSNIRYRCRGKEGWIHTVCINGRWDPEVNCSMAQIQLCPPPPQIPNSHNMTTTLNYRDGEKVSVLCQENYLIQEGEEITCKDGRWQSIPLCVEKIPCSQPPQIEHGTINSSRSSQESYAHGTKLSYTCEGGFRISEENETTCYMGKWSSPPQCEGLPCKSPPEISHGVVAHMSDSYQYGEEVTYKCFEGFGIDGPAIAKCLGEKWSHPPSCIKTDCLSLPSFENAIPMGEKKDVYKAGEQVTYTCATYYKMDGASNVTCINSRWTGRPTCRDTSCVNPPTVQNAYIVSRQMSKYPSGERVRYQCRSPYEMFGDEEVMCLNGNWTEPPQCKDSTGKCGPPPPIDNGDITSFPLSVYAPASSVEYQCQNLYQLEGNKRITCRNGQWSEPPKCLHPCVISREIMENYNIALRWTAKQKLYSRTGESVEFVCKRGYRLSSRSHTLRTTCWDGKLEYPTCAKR
Sequence of MDA-modified bovine serum albumin (bovine) (P02769 25-607): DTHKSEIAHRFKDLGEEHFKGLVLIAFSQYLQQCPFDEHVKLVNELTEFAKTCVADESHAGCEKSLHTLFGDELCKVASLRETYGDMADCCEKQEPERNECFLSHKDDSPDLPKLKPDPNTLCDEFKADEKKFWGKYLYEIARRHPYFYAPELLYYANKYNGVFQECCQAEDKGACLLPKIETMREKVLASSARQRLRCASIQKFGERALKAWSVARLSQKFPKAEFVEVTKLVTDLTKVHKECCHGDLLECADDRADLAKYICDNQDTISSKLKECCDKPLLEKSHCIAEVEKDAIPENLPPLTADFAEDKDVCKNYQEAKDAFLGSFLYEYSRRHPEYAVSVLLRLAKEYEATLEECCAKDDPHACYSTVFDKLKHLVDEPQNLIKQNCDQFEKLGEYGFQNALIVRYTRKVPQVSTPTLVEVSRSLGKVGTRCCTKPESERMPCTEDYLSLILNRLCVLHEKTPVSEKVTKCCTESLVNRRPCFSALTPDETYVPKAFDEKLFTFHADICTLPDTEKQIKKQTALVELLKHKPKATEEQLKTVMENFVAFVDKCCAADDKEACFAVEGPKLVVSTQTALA

Turning to “complement factor H and its splice variant factor H-like protein 1 in plasma (study cohorts, all rs1061170 genotypes) (from UniProt P08603 19-1231) (natural protein)”, in test [1], the binding to MDA-BSA, median of healthy individuals (n = 934) turned out to be 24200 RLU/100 ms; the binding to MDA-BSA, median of patients with major depression (n = 896) was 24800 RLU/100 ms; the binding to MDA-BSA, median of the integrated cohort (n = 1,830) turned out to be 24600 RLU/100 ms.
What is called Kd is the constant that tells how readily two partners part at equilibrium. Lower therefore signals a tighter complex. On to “recombinant complement factor H-related protein 3 (from UniProt Q02985 19-330) (natural protein)”, for which the dissociation constant Kd in test [2] is 3.48 µM.
As to “recombinant complement factor H-related protein 1 (from UniProt Q03591 19-330) (natural protein)”, the dissociation constant (Kd) in test [2] came to 0.86 µM.

For the origin of these results see publication PMC7211993.
